Read-outs that look alike come from different tables or passages of the source. Values belong to the molecule of their own block, whether it stands above or below them. Starred links: 1 amine or outer side, 2 acyl side, 3 side chain; linkers in the order of their positions; H or OH if unused. *: point of attachment. Kbt‑6‑CONH = ketobenzothiazole-6-CONH (amide link to Val), O=C(c1ccc2nc([*:1])sc2c1)[*:2]; kt = C-terminal ketothiazole, c1csc(*)n1
What was measured:
[1] = target: Ac-Ala-Arg-Leu-P1-ACC, P1 = L-His (H)
[2] = target: Ac-Ala-Arg-Leu-P1-ACC, P1 = L-Tyr (Y)
[3] = target: Ac-Ala-Arg-Leu-P1-ACC, P1 = L-Trp (W)
[4] = target: Ac-Ala-Arg-Leu-P1-ACC, P1 = L-Pro (P)
Ac-Ala-Arg-Leu-Arg-ACC [5] = target: Ac-Ala-Arg-Leu-Arg-ACC
[6] = target: Ac-Ala-Arg-Leu-P1-ACC, P1 = L-Gln (Q)
[7] = target: Ac-Ala-Arg-Leu-P1-ACC, P1 = L-Thr (T)
[8] = target: Ac-Ala-Arg-Leu-P1-ACC, P1 = L-Phe (F)
[9] = target: Ac-Ala-Arg-Leu-P1-ACC, P1 = L-Lys (K)
[10] = target: Ac-Ala-Arg-Leu-P1-ACC, P1 = L-Val (V)
[11] = target: Ac-Ala-Arg-Leu-P1-ACC, P1 = L-Met (M)
[12] = target: Ac-Ala-Arg-Leu-P1-ACC, P1 = Gly (G)
[13] = target: Ac-Ala-Arg-Leu-P1-ACC, P1 = L-Leu (L)
[14] = target: Ac-Ala-Arg-Leu-P1-ACC, P1 = L-Asp (D)
[15] = target: Ac-Ala-Arg-Leu-P1-ACC, P1 = L-Glu (E)
[16] = target: Ac-Ala-Arg-Leu-P1-ACC, P1 = L-Ile (I)
[17] = target: Ac-Ala-Arg-Leu-P1-ACC, P1 = L-Ser (S)
[18] = target: Ac-Ala-Arg-Leu-P1-ACC, P1 = L-Ala (A)
[19] = target: Ac-Ala-Arg-Leu-P1-ACC, P1 = L-Asn (N)
Ac-Ala-Arg-Leu-Arg-ACC [20] = target: Ac-Ala-Arg-Leu-Arg-ACC; remark: listed apart in the source
[21] = target: Ac-His(3Bom)-Agp-hLeu-Arg-ACC
Factor Xa [22] = experiment: chromogenic inhibition assay
recombinant thrombin [23] = experiment: chromogenic inhibition assay
[24] = target: T1, matriptase (Charles Craik, UCSF), recombinant (Homo sapiens (Human)) (UniProt Q9Y5Y6)
T1 sequence: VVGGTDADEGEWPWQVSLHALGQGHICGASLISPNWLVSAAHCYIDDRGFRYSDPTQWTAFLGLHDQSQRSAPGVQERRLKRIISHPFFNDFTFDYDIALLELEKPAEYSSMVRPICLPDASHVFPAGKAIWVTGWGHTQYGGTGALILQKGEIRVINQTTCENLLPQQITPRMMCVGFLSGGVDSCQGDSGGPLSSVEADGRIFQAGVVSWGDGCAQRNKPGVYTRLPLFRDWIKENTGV

[25] = target: Recombinant human hepsin (4776-SE-010, R&D Systems), activated (human) (UniProt P05981)
[26] = target: Hepatocyte Growth Factor Activator (HGFA) serine protease domain, N-terminal His-tag, recombinant (Homo sapiens (Human)) (UniProt Q04756)
[27] = target: Hepatocyte Growth Factor Activator (HGFA) serine protease domain, N-terminal His-tag, recombinant (Homo sapiens (Human)) (UniProt Q04756); experiment: fluorogenic inhibition assay
[28] = target: T2, matriptase (Charles Craik, UCSF), recombinant (Homo sapiens (Human), UniProt Q9Y5Y6); experiment: fluorogenic inhibition assay
T2 sequence: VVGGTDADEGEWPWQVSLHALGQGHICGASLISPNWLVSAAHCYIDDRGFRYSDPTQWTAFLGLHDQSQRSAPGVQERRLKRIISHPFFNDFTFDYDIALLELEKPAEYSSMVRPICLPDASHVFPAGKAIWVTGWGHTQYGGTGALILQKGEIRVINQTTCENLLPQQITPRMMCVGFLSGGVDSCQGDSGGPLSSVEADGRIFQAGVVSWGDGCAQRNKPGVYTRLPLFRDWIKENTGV

[29] = target: T2, matriptase (Charles Craik, UCSF), …; experiment: fluorogenic inhibition assay; remark: listed apart in the source
Protocol: (§1) Inhibitors (11-pt serial dilutions, 0-20 μM final concentration in reaction) were serially diluted in DMSO (2% DMSO final concentration) and then mixed with either recombinant serine protease domain of HGFA [Z. Han, P. K. Harris, D. E. Jones, R. Chugani, T. Kim, M. Agarwal, W. Shen, S. A. Wildman, J. W. Janetka, Acs Med Chem Lett 2014, 5, 1219-1224], matriptase (Charles Craik, UCSF) or hepsin* (#4776-SE-010, R&D Systems, Minneapolis, Minn.) in black 384 well plates (Corning #3575. Corning, N.Y.). […] The final substrate concentrations for all assays were at the Kₘ for the respective enzymes. Changes in fluorescence (excitation at 380 nm and emission at 460 nm) were measured at room temperature over time in a Biotek Synergy 2 plate reader (Winnoski, Vt.). Using GraphPad Prism version 6.04 software program, (GraphPad Software, San Diego, Calif., www.graphpad.com), a four parameter curve fit was used to determine the inhibitor IC₅₀s from a plot of the mean reaction velocity versus the inhibitor concentration. The IC₅₀ values represent the average of three separate experimental determinations.

[30] = target: T3, Recombinant human hepsin (4776-SE-010, R&D Systems), activated (human, UniProt P05981); experiment: fluorogenic inhibition assay
Protocol: as §1

[31] = target: Hepatocyte Growth Factor Activator (HGFA) serine protease domain, N-terminal His-tag, recombinant (Homo sapiens (Human)) (UniProt Q04756); experiment: fluorogenic inhibition assay; remark: listed apart in the source
[32] = target: T3, Recombinant human hepsin (4776-SE-010, …); experiment: fluorogenic inhibition assay; remark: listed apart in the source
[33] = target: Hepatocyte Growth Factor Activator (HGFA) serine protease domain, N-terminal His-tag, recombinant (Homo sapiens (Human)) (UniProt Q04756); experiment: fluorogenic inhibition assay; remark: listed apart in the source
[34] = target: T2, matriptase (Charles Craik, UCSF), …; experiment: fluorogenic inhibition assay; remark: listed apart in the source
[35] = target: T3, Recombinant human hepsin (4776-SE-010, …); experiment: fluorogenic inhibition assay; remark: listed apart in the source
Trypsin = experiment: selectivity inhibition assay
Factor Xa [36] = experiment: selectivity inhibition assay
recombinant thrombin [37] = experiment: selectivity inhibition assay
[38] = target: Hepatocyte Growth Factor Activator (HGFA) serine protease domain, N-terminal His-tag, recombinant (Homo sapiens (Human)) (UniProt Q04756); remark: listed apart in the source

% activity, P1 position [1]: 0%
% activity, P1 position [2]: 0%
% activity, P1 position [3]: 0.73%
% activity, P1 position [4]: 0%
% activity, P1 position (Ac-Ala-Arg-Leu-Arg-ACC [5]): 100%
% activity, P1 position [6]: 0%
% activity, P1 position [7]: 0%
% activity, P1 position [8]: 0%
% activity, P1 position [9]: 0.99%
% activity, P1 position [10]: 0%
% activity, P1 position [11]: 0%
% activity, P1 position [12]: 0%
% activity, P1 position [13]: 0%
% activity, P1 position [14]: 0%
% activity, P1 position [15]: 0%
% activity, P1 position [16]: 0%
% activity, P1 position [17]: 0%
% activity, P1 position [18]: 0%
% activity, P1 position [19]: 0%
kcat/KM (Ac-Ala-Arg-Leu-Arg-ACC [20]): 3140
kcat/KM (Ac-Agp-hArg-Leu-Arg-ACC): 41300
kcat/KM [21]: 28100
kcat/KM (NH2-Leu-DTrp-Nle-Arg-ACC): 17700
Km of fluorogenic substrate (Boc-QLR-AMC): 37 µM
Molecule: Hepatocyte Growth Factor Activator (HGFA) serine protease domain, N-terminal His-tag, recombinant (from UniProt Q04756) (enzyme)

Ki (Factor Xa [22]): 759 nM
Ki (recombinant thrombin [23]): 3700 nM
IC50 of enzyme inhibition [24]: 175 nM
IC50 of enzyme inhibition [25]: 9 nM
IC50 of enzyme inhibition [26]: 435 nM
Ki [27]: 66 nM
Ki [28]: 66 nM
Ki [29]: 69 nM
Ki [30]: 1.2 nM
Ki [31]: 63 nM
B1: Ac-SWLR(SEQ ID NO: 17)-kt (peptide)
peptide: Ac-SWLR-kt
SMILES: CC(=O)N[C@@H](CO)C(=O)N[C@@H](Cc1c[nH]c2ccccc12)C(=O)N[C@@H](CC(C)C)C(=O)N[C@@H](CCCNC(=N)N)C(=O)c1nccs1

fold decrease of activity against Ac-KQLR-kbt (7) [28]: > 10 fold
fold decrease of activity against Ac-KQLR-kbt (7) [32]: > 3 fold
Ki [33]: 13 nM
fold change of potency against Ac-KQLR-kbt (7) [33]: 2 fold
Ki [34]: 6.98 nM
Ki [35]: 0.29 nM
Ki (Trypsin): 0.07 nM
Ki (Factor Xa [36]): 66 nM
Ki (recombinant thrombin [37]): 3210 nM
Ki [31]: 12 nM
Molecule: Ac-KQLR-{Kbt‑6‑CONH-Val-NH2} [Ac-KQLR(SEQ ID NO: 1)-Kbt-Val-NH2]

IC50 of enzyme inhibition [24]: 14 nM
IC50 of enzyme inhibition [25]: 5 nM
IC50 of enzyme inhibition [26]: 225 nM
Ki [29]: 1.1 nM
Ki [30]: 0.57 nM
Ki [31]: 12 nM
EC50 of inhibition of c-MET phosphorylation (Y1234/1235) in MDA-MB-231 cells treated with pro-HGF/HGFA reactions [38]: 180 nM
B2: Ac-KRLR(SEQ ID NO: 8)-kt (peptide)
peptide: Ac-KRLR-kt
SMILES: CC(=O)N[C@@H](CCCCN)C(=O)N[C@@H](CCCNC(=N)N)C(=O)N[C@@H](CC(C)C)C(=O)N[C@@H](CCCNC(=N)N)C(=O)c1nccs1

From US20180066015A1, “INHIBITORS OF GROWTH FACTOR ACTIVATION ENZYMES” (Washington University, published 2018)
